± gives the standard deviation.
Test: collision cross section of modified peptide (TIMS, N2, iRT-aligned); higher = larger / more extended gas-phase ion
Experimental: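 1/K0 was aligned run-wise to spiked iRT peptides and converted to CCS in N2 (Mason-Schamp). Values are the mean of 1-3 technical replicates for the most abundant feature at each charge state.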

[1] = charge state: 2, modification: Methyl (K)
[2] = charge state: 3, modification: Methyl (K)
[3] = charge state: 2, modification: HexNAc (ST)
[4] = charge state: 3, modification: HexNAc (ST)
[5] = charge state: 2, modification: GlyGly (K)
[6] = charge state: 3, modification: GlyGly (K)
[7] = charge state: 2, modification: Malonyl
[8] = charge state: 3, modification: Malonyl
[9] = charge state: 2, modification: Phospho (Y)
[10] = charge state: 3, modification: Phospho (Y)
[11] = charge state: 2, modification: Acetyl (K)
[12] = charge state: 2, modification: Citrullination (R)
[13] = charge state: 3, modification: Citrullination (R)
[14] = charge state: 2, modification: Trimethyl (K)
[15] = charge state: 3, modification: Trimethyl (K)
[16] = charge state: 2, modification: Butyryl
[17] = charge state: 2, modification: Glutarylation
[18] = charge state: 3, modification: Glutarylation
[19] = charge state: 2, modification: Biotin
[20] = charge state: 2, modification: Crotonyl
[21] = charge state: 2, modification: hydroxyisobutyryl
[22] = charge state: 3, modification: hydroxyisobutyryl
[23] = charge state: 3, modification: Methyl (R)
[24] = charge state: 2, modification: Formyl
[25] = charge state: 3, modification: Crotonyl
[26] = charge state: 2, modification: Succinyl
[27] = charge state: 3, modification: Succinyl
[28] = charge state: 2, modification: Nitro (Y)
[29] = charge state: 2, modification: Methyl (R)
[30] = charge state: 3, modification: Dimethyl (K)

SDSGKPYYYNSQTK [_SDSGK(Methyl (K))PYYYNSQTK_]
collision cross section [1]: 422.21 Å²
collision cross section [2]: 475.71 ± 2.9 Å²

IEDEQALGSQLQK [_IEDEQALGS(HexNAc (ST))QLQK_]
collision cross section [3]: 424.7 ± 0.62 Å²
collision cross section [4]: 499.3 ± 0.96 Å²

IINEPTAAAIAYGLDKK [_IINEPTAAAIAYGLDK(GlyGly (K))K_]
collision cross section [5]: 510.84 ± 1.5 Å²
collision cross section [6]: 560.44 ± 1.9 Å²

SLKLNTAEDAK [_SLK(Methyl (K))LNTAEDAK_]
collision cross section [1]: 364.71 ± 0.36 Å²
collision cross section [2]: 470.64 ± 4.7 Å²

ANEKTESSSAQQVAVSR [_ANEK(Malonyl)TESSSAQQVAVSR_]
collision cross section [7]: 438.58 ± 1 Å²
collision cross section [8]: 534.15 ± 1.9 Å²

GPQNATDSYVHK [_GPQNATDSY(Phospho (Y))VHK_]
collision cross section [9]: 396.29 ± 0.77 Å²
collision cross section [10]: 452.94 ± 1.8 Å²

VGEFSGANKEK [_VGEFSGANK(GlyGly (K))EK_]
collision cross section [5]: 372.84 ± 0.89 Å²
collision cross section [6]: 452.89 ± 1.5 Å²

IVSGKDYNVTANSK [_IVSGK(Malonyl)DYNVTANSK_]
collision cross section [7]: 407.96 ± 0.037 Å²
collision cross section [8]: 465.84 ± 1.8 Å²

LAEQEAHYAVR [_LAEQEAHY(Phospho (Y))AVR_]
collision cross section [9]: 408.57 ± 0.76 Å²
collision cross section [10]: 482.98 ± 0.1 Å²

TLTPASSPVSSPSKHGDR [_TLTPASSPVSSPS(HexNAc (ST))KHGDR_]
collision cross section [4]: 519.55 ± 0.18 Å²

DTGEKLTVAENEAETK [_DTGEK(Acetyl (K))LTVAENEAETK_]
collision cross section [11]: 441.95 ± 2.1 Å²
collision cross section (charge state: 3, modification: Acetyl (K)): 512.62 Å²

LLALSGPGGGRGR [_LLALSGPGGGR(Citrullination (R))GR_]
collision cross section [12]: 366.92 ± 1 Å²
collision cross section [13]: 440.81 ± 17 Å²

ATVASSTQKFQDLGVK [_ATVASSTQK(Trimethyl (K))FQDLGVK_]
collision cross section [14]: 475.64 ± 1.1 Å²
collision cross section [15]: 477.04 ± 1.8 Å²

SEASSEFAKK [_SEASSEFAK(Butyryl)K_]
collision cross section [16]: 356.58 ± 1.8 Å²

GFALVGVGSEASSKK [_GFALVGVGSEASSK(Gluratylation)K_]
collision cross section [17]: 416.74 ± 0.49 Å²
collision cross section [18]: 499.26 ± 3.6 Å²

IGNSYFKEEK [_IGNSYFK(Biotin)EEK_]
collision cross section [19]: 398.98 Å²

FLQEFYQDDELGKK [_FLQEFYQDDELGK(Trimethyl (K))K_]
collision cross section [14]: 464.1 ± 0.55 Å²
collision cross section [15]: 508.12 ± 1.8 Å²

GAEKTEVAEPR [_GAEK(Crotonyl)TEVAEPR_]
collision cross section [20]: 370.18 ± 9 Å²

ANLEKAQAELVGTADEATR [_ANLEK(hydroxyisobutyryl)AQAELVGTADEATR_]
collision cross section [21]: 473.77 ± 6.8 Å²
collision cross section [22]: 579.16 ± 1.2 Å²

APPIDRSILPTAPR [_APPIDR(Methyl (R))SILPTAPR_]
collision cross section [23]: 489.12 ± 2.5 Å²

SEASSEFAKK [_SEASSEFAK(Malonyl)K_]
collision cross section [7]: 350.91 ± 0.74 Å²

VGTASVLQPVKK [_VGTASVLQPVK(Formyl)K_]
collision cross section [24]: 375.49 ± 0.89 Å²

ELANFDPSRPGPPSGR [_ELANFDPS(HexNAc (ST))RPGPPSGR_]
collision cross section [4]: 503.12 ± 0.18 Å²

YSRGAGLGFSTAPNK [_YSR(Methyl (R))GAGLGFSTAPNK_]
collision cross section [23]: 478.19 ± 2.5 Å²

GTPGKPGPR [_GTPGKP(Hydroxyproline)GPR_]
collision cross section (charge state: 2, modification: Hydroxyproline): 308.55 Å²

GSLEKGSPEDK [_GSLEK(Formyl)GSPEDK_]
collision cross section [24]: 358.29 ± 0.88 Å²

DAEAAEATAEGALKAEK [_DAEAAEATAEGALK(Biotin)AEK_]
collision cross section [19]: 451.86 Å²
collision cross section (charge state: 3, modification: Biotin): 551.51 Å²

VYSLFLDESR [_VY(Phospho (Y))SLFLDESR_]
collision cross section [9]: 376.54 ± 1.2 Å²

VTLEVGKVIQQGR [_VTLEVGK(Trimethyl (K))VIQQGR_]
collision cross section [14]: 428.78 ± 1 Å²
collision cross section [15]: 471.08 ± 1.8 Å²

LEQVEKELLR [_LEQVEK(Gluratylation)ELLR_]
collision cross section [17]: 392.7 ± 0.12 Å²

IPPTYQIR [_IPPTY(Phospho (Y))QIR_]
collision cross section [9]: 350.25 ± 0.066 Å²

LLEQKTQESQK [_LLEQK(hydroxyisobutyryl)TQESQK_]
collision cross section [21]: 401.39 ± 0.81 Å²

LDHLAEKFR [_LDHLAEK(Crotonyl)FR_]
collision cross section [20]: 378.01 ± 0.89 Å²
collision cross section [25]: 440.09 ± 1.3 Å²

ISALQGKLSK [_ISALQGK(Butyryl)LSK_]
collision cross section [16]: 358.56 ± 1.2 Å²

KFGVLSDNFK [_K(Acetyl (K))FGVLSDNFK_]
collision cross section [11]: 370.76 ± 0.46 Å²

ASEALLKQLK [_ASEALLK(hydroxyisobutyryl)QLK_]
collision cross section [21]: 382.21 ± 0.28 Å²

IISSIEQKEENK [_IISSIEQK(hydroxyisobutyryl)EENK_]
collision cross section [21]: 408.38 ± 0.3 Å²
collision cross section [22]: 478.99 ± 4 Å²

PDTQYTGR [_PDTQY(Phospho (Y))TGR_]
collision cross section [9]: 335.56 ± 0.067 Å²

LAEEENKAK [_LAEEENK(GlyGly (K))AK_]
collision cross section [5]: 356.17 ± 0.39 Å²
collision cross section [6]: 428.57 ± 0.75 Å²

SKHLQEQLNELK [_SK(Succinyl)HLQEQLNELK_]
collision cross section [26]: 419.21 ± 1.5 Å²
collision cross section [27]: 481.12 ± 2 Å²

GATVTRGVPPPPTVR [_GATVTR(Citrullination (R))GVPPPPTVR_]
collision cross section [12]: 398.42 ± 2.1 Å²
collision cross section [13]: 501.66 Å²

TSYAQHQQVR [_TSY(Nitro (Y))AQHQQVR_]
collision cross section [28]: 366.98 ± 0.94 Å²
collision cross section (charge state: 3, modification: Nitro (Y)): 458.71 ± 1.2 Å²

ESISVSSEQLAQFR [_ES(HexNAc (ST))ISVSSEQLAQFR_]
collision cross section [3]: 438.25 Å²

VYSLFLDESR [_VY(Nitro (Y))SLFLDESR_]
collision cross section [28]: 377.85 ± 0.17 Å²

VGLQVVAVKAPGFGDNR [_VGLQVVAVK(Crotonyl)APGFGDNR_]
collision cross section [20]: 449.86 ± 0.94 Å²
collision cross section [25]: 499.08 ± 1.6 Å²

GEVGAGAGPGAQAGPSAKR [_GEVGAGAGPGAQAGPSAK(Methyl (K))R_]
collision cross section [1]: 422.57 ± 1.8 Å²
collision cross section [2]: 489.3 ± 3.6 Å²

LAEEENKAK [_LAEEENK(Succinyl)AK_]
collision cross section [26]: 348.59 ± 0.23 Å²

SVSSSSYR [_SVSSSSY(Nitro (Y))R_]
collision cross section [28]: 311.12 ± 0.16 Å²

SGGRGVSVSSAR [_SGGR(Methyl (R))GVSVSSAR_]
collision cross section [29]: 362.59 ± 13 Å²
collision cross section [23]: 443.44 ± 0.81 Å²

AIQLNPSYIR [_AIQLNPSY(Nitro (Y))IR_]
collision cross section [28]: 380.21 ± 0.17 Å²

STGLELETPSLVPVKK [_STGLELETPSLVPVK(GlyGly (K))K_]
collision cross section [5]: 452.54 ± 1.9 Å²
collision cross section [6]: 530.27 ± 9.4 Å²

VYIASSSGSTAIKK [_VYIASSSGSTAIK(Methyl (K))K_]
collision cross section [1]: 428.78 ± 1.9 Å²
collision cross section [2]: 495.87 ± 3.1 Å²

ATVASSTQKFQDLGVK [_ATVASSTQK(hydroxyisobutyryl)FQDLGVK_]
collision cross section [21]: 453.68 ± 1.4 Å²
collision cross section [22]: 498.28 ± 1.6 Å²

GRGGAESHTFK [_GR(Methyl (R))GGAESHTFK_]
collision cross section [29]: 352.3 ± 2.4 Å²
collision cross section [23]: 441.34 ± 2.6 Å²

FLQEFYQDDELGKK [_FLQEFYQDDELGK(Crotonyl)K_]
collision cross section [20]: 450.33 ± 0.0083 Å²

AAYQAAIRGVGSAQSR [_AAYQAAIR(Citrullination (R))GVGSAQSR_]
collision cross section [12]: 418.72 ± 0.97 Å²
collision cross section [13]: 501.27 ± 7.8 Å²

GRGAAAAGGPQR [_GR(Methyl (R))GAAAAGGPQR_]
collision cross section [29]: 338.98 ± 2.7 Å²
collision cross section [23]: 434.02 ± 3.5 Å²

SKLLFSNTAAQK [_SK(Formyl)LLFSNTAAQK_]
collision cross section [24]: 390.83 ± 0.41 Å²

FGTINIVHPKLGSYTK [_FGTINIVHPK(Dimethyl (K))LGSYTK_]
collision cross section [30]: 520.37 ± 1.2 Å²

LLIVSTTPYSEKDTK [_LLIVSTTPYSEK(Butyryl)DTK_]
collision cross section [16]: 459.06 ± 0.51 Å²
collision cross section (charge state: 3, modification: Butyryl): 488.4 ± 2.4 Å²

SGKFTQQDIDEAK [_SGK(Dimethyl (K))FTQQDIDEAK_]
collision cross section (charge state: 2, modification: Dimethyl (K)): 408.63 Å²
collision cross section [30]: 466.84 ± 1.6 Å²

TTEETSKPK [_TTEETSK(Crotonyl)PK_]
collision cross section [20]: 346.33 ± 11 Å²

LLIVSTTPYSEKDTK [_LLIVSTTPYSEK(Gluratylation)DTK_]
collision cross section [17]: 462.31 ± 1.5 Å²
collision cross section [18]: 493.7 ± 1.3 Å²

LLIVSTTPYSEKDTK [_LLIVSTTPYSEK(GlyGly (K))DTK_]
collision cross section [5]: 461.81 ± 0.94 Å²
collision cross section [6]: 515.54 ± 1.1 Å²

GFALVGVGSEASSKK [_GFALVGVGSEASSK(Succinyl)K_]
collision cross section [26]: 413.38 ± 0.54 Å²
collision cross section [27]: 497.13 ± 2.5 Å²

TVSKVDDFLANEAK [_TVSK(Succinyl)VDDFLANEAK_]
collision cross section [26]: 425.01 ± 0.52 Å²

Reference: the supplement of paper PMC10598134
